The record followed here is article PMC9579148.

pKd: −log10 of the molar value.

Assay [1] addresses recombinant SARS-CoV-2 M^pro (Proteros) (SARS-CoV-2).
Assay [2] has the same target. The experiment in a line: FRET enzymatic inhibition assay.

Usually pKd stands for the Kd on a negative log10 scale, so that one unit is a factor of ten. Turning to “compound 57 (BOC-Gly-Phe-His aldehyde) (peptide)”, in assay [1], the IC50 of inhibition of M^pro enzymatic activity (FRET substrate cleavage) stood at 6490 nM. In addition, the pKd in assay [2] was 5.49.
Regarding “compound 4 (acetyl-Gly-Phe-His aldehyde, tripeptide derivative of AT1001)”, the IC50 of inhibition of M^pro enzymatic activity (FRET substrate cleavage) in assay [1] was determined as 2510 nM. Besides, the pKd in assay [2] is 5.90.
For the substance “compound 58 (octanoyl-Gly-Phe-His aldehyde) (peptide)”, the IC50 of inhibition of M^pro enzymatic activity (FRET substrate cleavage) in assay [1] turned out to be 2370 nM. Besides, the pKd in assay [2] was 5.92.
